Measurements as given in article PMC4020936.
Values belong to the substance of their own block, whether it stands above or below them.

Experiments:
[1] = molecular target: C13S-mutant rGlEB1 (G. lamblia); test: SEC; about 800 µg rGlEB1 in PBS on Superdex 75 10/300 GL; size markers 75, 29, 14 and 6 kDa; monomer to dimer
[2] = molecular target: C46S-mutant rGlEB1 (G. lamblia); test: SDS-PAGE of SEC fractions without DTT; fractions eluted from SEC separated by SDS-PAGE without DTT; shows disulfide-linked dimers only
[3] = molecular target: full-length recombinant Giardia lamblia end-binding 1 protein, rGlEB1_(1–238) (G. lamblia); test: SEC; about 800 µg rGlEB1 in PBS on Superdex 75 10/300 GL; size markers 75, 29, 14 and 6 kDa; monomer to dimer
[4] = molecular target: full-length recombinant Giardia lamblia end-binding 1 protein, rGlEB1_(1–238) (G. lamblia); test: SDS-PAGE of SEC fractions without DTT; fractions eluted from SEC separated by SDS-PAGE without DTT; shows disulfide-linked dimers only
[5] = molecular target: truncated recombinant G. lamblia EB1, rGlEB1_(1–184) (CH domain and linker) (G. lamblia); test: SEC; about 800 µg rGlEB1 in PBS on Superdex 75 10/300 GL; size markers 75, 29, 14 and 6 kDa; monomer to dimer

Substance: C13S-mutant rGlEB1 (natural protein)
stoichiometry N [1]: 2

Substance: C46S-mutant rGlEB1 (natural protein)
stoichiometry N [2]: 2

stoichiometry N [3]: 2
stoichiometry N [4]: 2
Substance: full-length recombinant Giardia lamblia end-binding 1 protein, rGlEB1_(1–238) (natural protein)

stoichiometry N [5]: 2
Substance: truncated recombinant G. lamblia EB1, rGlEB1_(1–184) (CH domain and linker) (domain or fragment)
